As usually defined, the stoichiometry N is the number of molecules, sites or subunits per partner or assembly.

From paper PMC7254967 come the findings set out here.

Holding throughout (assay): crystal structure
Assay [1] addresses F6, fused 4-oxalocrotonate tautomerase from Caballeronia arationis (Caballeronia arationis).
Assay [2] concerns the target Q0, fused 4-oxalocrotonate tautomerase from Bordetella trematum (Bordetella trematum).
The target in assay [3] is R7, fused 4-oxalocrotonate tautomerase from Burkholderia sp. RPE67 (Burkholderia sp. RPE67).
Assay [4] has as its target W0, fused 4-oxalocrotonate tautomerase from Advenella mimigardefordensis DPN7 (Advenella mimigardefordensis DPN7).

For the substance “F6, fused 4-oxalocrotonate tautomerase from Caballeronia arationis (enzyme)”, the stoichiometry N in assay [1] was 3.
Regarding “Q0, fused 4-oxalocrotonate tautomerase from Bordetella trematum (enzyme)”, the stoichiometry N in assay [2] stood at 3.
With “R7, fused 4-oxalocrotonate tautomerase from Burkholderia sp. RPE67 (enzyme)”, in assay [3], the stoichiometry N amounted to 3.
“W0, fused 4-oxalocrotonate tautomerase from Advenella mimigardefordensis DPN7 (enzyme)”: in assay [4], the stoichiometry N was determined as 3.
